# Source: the DeepSol protein solubility set
# Assay: soluble on expression in E. coli; label from the status in PepcDB or PDB records
row,Sequence,soluble on expression in E. coli
1,GHHHHHHAIAENLYFQSTGNAGEWCLMESDPGVFTELIKGFGCRGAQVEEIWSLEPENFEKLKPVHGLIFLFKWQPGEEPAGSVVQDSRLDTIFFAKQVINNACATQAIVSVLLNCTHQDVHLGETLSEFKEFSQSFDAAMKGLALSNSDVIRQVHNSFARQQMFEFDTKTSAKEEDAFHFVSYVPVNGRLYELDGLREGPIDLGACNQDDWISAVRPVIEKRIQKYSEGEIRFNLMAIVSDRKMIYEQKIAELQRQLAEEPMDTDQGNSMLSAIQSEVAKNQMLIEEEVQKLKRYKIENIRRKHNYLPFIMELLKTLAEHQQLIPLVEKAKEKQNAKKAQETK,not soluble
2,MKKVVAVVKLQLPAGKATPAPPVGPALGQHGANIMEFVKAFNAATANMGDAIVPVEITIYADRSFTFVTKTPPASYLIRKAAGLEKGAHKPGREKVGRITWEQVLEIAKQKMPDLNTTDLEAAARMIAGSARSMGVEVVGAPEVKDA,soluble
3,GSGEQHFAEGHEQAFTGKESAAMKDVVSGHATHEAGKSTTAQPTETRSTSESSHSLRDSIMAQVRDAVTTREPNGNGRISIRLNPVELGELTINVRVADQQVKVDVVAANGQVRDILLNNLDNLKENFSRQNLTMTGFDVSTGT,not soluble
4,MLEMLEYNHYQVQTHLENPTKYHIQQAQRQQVKQYLSTTLANKHANQVLSLPCPNQPGDHVMPPVPGSSAPNSPMAMLTLNSNCEKEGFYKFEEQNRAESECPGMNTHSRASCMQMDDVIDDIISLESSYNEEILGLMDPALQMANTLPVSGNLIDLYGNQGLPPPGLTISNSCPANLPNIKRELTESEARALAKERQKKDNHNLIERRRRFNINDRIKELGTLIPKSNDPDMRWNKGTILKASVDYIRKLQREQQRAKELENRQKKLEHANRHLLLRIQELEMQARAHGLSLIPSTGLCSPDLVNRIIKQEPVLENCSQDLLQHHADLTCTTTLDLTDGTITFNNNLGTGTEANQAYSVPTKMGSKLEDILMDDTLSPVGVTDPLLSSVSPGASKTSSRRSSMSMEETEHTC,soluble
5,GKRLGIFTHDNPDPDSMSSAYALREIAKQFDVIADILYYGEILHQKNRAMVNLLEIPMIRAPEVDLSHYDAFAIVDSSGPGVNNSIPPDIDISIVIDHHPAEKVVAEFVDLREDVGATATILTEYIKELKITPSKILATALFFGIKSETDEFKRNTRTADFLACAFLYPFVDQDLIEKIESPSI,not soluble
6,PTDILEHVLLPVATEDDALATVTALEPYEPEQVTALHVVEKGEGVPDKTPVAQSEEVAAESYAAVRTVFPDADDHTAYSRNVVEAIFHAADEVGASAIAYRSRGGGRLMQFLSGDLSLKLVTNAAIPVIALPRADS,not soluble
7,APVISQISKDVVASVGDSVEFNCTVEEVGQLSVSWAKRPSESDTNSVVLSMRNILSLPDQRYNVTVTEGPKTGSAIYTFRIQNIEVSDMGPYECQVLVSATEKVTKKLSLQIKTPPVIAENTPKSTLVTEGQNLELTCHANGFPKPTISWAREHNAVMPAGGHLLAEPTLRIRSVHRMDRGGYYCIAQNGEGQPDKRLIRVEVEFRPQIAVQRPKIAQMVSHSAELECSVQGYPAPTVVWHKNGVPLQSSRHHEVANTASSSGTTTSVLRIDSVGEEDFGDYYCNATNKLGHADARLHLFQTVIPVPSLS,soluble
8,MRLPPMLDNLTRMARMNDNQHRFALSDLYRFVNGPWLDSHVIPEDRGVDGIFHGLRDRAEEDVHTIVMDSADSLAGKLYASFMDTEGIESAGVAALDKDLTLIDVATVPEFVQALGALDRVGVGGPVGFWVAKDSAGDKSVAYIMQSGITLPDEAYYREESHAQTREAYQKHVEKMLGFLAPEQLGTTPIDAATRILALETDIAAAHWDVVQRRDAVKTFNPTEMAELPPQVAALLRAAGLPEHRVISMMPSYFEALESLLTPQRLDDWKLLTTWRILHSRAGVLTPEISRADFEFFGTTLSGATQQRDRWKRALGLAESFVGEEIGALYVERHFPESSKKDMLSLVSYLIEAYRERISGLSWMTPETRERALDKLDKFNAKIGYPDSWRSYAGLEFSAKGTDLL,not soluble
9,MGSDKIHHHHHHMLMDSLQEIICEKRTYTRLYHSHKHAYSQFLFPLEGSIDLETEGRQVKLNPDHFLYIPPQCEHRFRSIGRNECLVLDVPLHAMKIDEYRAGSGIEAALDPFWSSIRYLLTEEAKAGTANSLHMLVQYIKEKLQSHSYASIAYIHSHLFERLTIKKLAEIEHYHPAYYSSWFKKQTGKSPQNYIADLRLEEAKRMLMERNETLTVVSEALGFQNLSSFTRWFTKSTGMPPRLYRNTLYSDKK,not soluble
10,MGSSHHHHHHMKKARMTVDKDYKIAEIDKRIYGSFVEHLGRAVYDGLYQPGNSKSDEDGFRKDVIELVKELNVPIIRYPGGNFVSNYFWEDGVGPVEDRPRRLDLAWKSIEPNQVGINEFAKWCKKVNAEIMMAVNLGTRGISDACNLLEYCNHPGGSKYSDMRIKHGVKEPHNIKVWCLGNAMDGPWQVGHKTMDEYGRIAEETARAMKMIDPSIELVACGSSSKDMPTFPQWEATVLDYAYDYVDYISLHQYYGNKENDTADFLAKSDDLDDFIRSVIATCDYIKAKKRSKKDIYLSFDEWNVWYHSNNEDANIMQNEPWRIAPPLLEDIYTFEDALLVGLMLITLMKHADRIKIACLAQLINVIAPIVTERNGGAAWRQTIFYPFMHASKYGRGIVLQPVINSPLHDTSKHEDVTDIESVAIYNEEKEEVTIFAVNRNIHEDIVLVSDVRGMKDYRLLEHIVLEHQDLKIRNSVNGEEVYPKNSDKSSFDDGILTSMLRRASWNVIRIGK,soluble
11,MPLLCALIVGGLFGTSQAQAGGFMVPTTNTAGWGRAMAGGSLFPNDPSAAFNNPAAMAFIDKRIAQLTVNYADIDIKYNGDAYDYQGNPMTGGYQDGPGTPELGTNDGGQAGFGAWLPTGFLVVPINDRFAFGLSQVVPMGMRSTWDPNWKGRDFAVDTKIETIGLTGSLSFKVNDNFSLGAGVIIQRTSGFVSQNLDLYASAANSPGMGGIPFPASNSSALMRVKVDNTSPGFFAGAVWKPTDRDTLGFAYHAKIRNKLKGHYNLYDHDGGLTEGAIEGGTPGLAYPGLDLRMGASASARLDIPAYASLDWVHQFNDRLSLGASATWTEWSSFQDLTLKSHGNTIVSIPYTYRNTWTLAVGGDYKVTDQWTMRAGVAYDQTPTHNATRDPRIPDGDRYFASLGAGYRFQSMPELSIDAAYSRQFVKEVPLKTVNQDRLGGGRLDGRATSKGQVFSLSATYDF,not soluble
12,SLQLKSEKARIILSGEPTLLIDKGKIDISALKSQRLNINDLMEELRLKNYFNVEDIEYAILETSGQISLIPKTHLTNATKEDLNLKVKQENVPITIILDGKVNTDNIKYLNKDADWLMKELKKNKIDSPKDVFLALIDSKGKFYYQKYNN,soluble
13,MGSDKIHHHHHHKHIVIMMTFKQDILPIIEALCSEGYHVTVIGKKIYQKDINNINHAYFIPAGNKYIMRHMKVLSKAKIIILDTYYLMMGGYQKKKGQTVIQTWHAAGALKNFGLTDHQVDLKNKAMVRQYKKVYDATDYYLVGGEKMAQCFIQSFDASPSQMLKFGLPRLTQYFRSNLKLEQQRLKKKYHITNKLAVYVPTYREGQVAQRTIDKENFERHLPNYTLLSHLHPSTVDCQTSHSIDVTSLLIMADIIISDYSSLPIEASALNKPTLIYNYDEQQYEKVRGLNEFYYAIPERYKMSNEESIIQAIQDNDEQFQSLFNDWHQYNSKDSLNQLVHFINKLVK,not soluble
14,MAMPEKSSDVKPTEECGSFPEIIELNVGGQVYITRYPTLISIPGSRLWEMFSVKNPCSLIQDNKGRFFIDRDGFLFRYVLDYMRDMQVVLPDHFPECGRLHREAEYFKLPELAKMLAPKMNKLNSIGNDSCPIDLEELSPSIDTTFNFSSTNSIHISGPDNPMVLRAAPGSELKKAGFITIGYRGSYTLGRDSQADAKFRRVARIMVCGKISLAKEVFGDTLNESRDPDRPPERYTSRYYLKFTFLEQAFDKLADAGFHMVACNSTGTCTVTHDQTDDRIWTSYTEYVFYRE,soluble
15,MTETDKKQEQENHAECEDKPKPCCVCKPEKEERDTCILFNGQDSEKCKEFIEKYKECMKGYGFEVPSAN,soluble
16,AVVSTDEYVTRTNIYYHAGSSRLLAVGHPYYAIKKQDSNKIAVPKVSGLQYRVFRVKLPDPNKFGFPDTSFYDPASQRLVWACTGVEVGRGQPLGVGISGHPLLNKLDDTENSNKYVGNSGTDNRECISMDYKQTQLCLIGCRPPIGEHWGKGTPSNANQVKAGECPPLELLNTVLQDGDMVDTGFGAMDFTTLQANKSDVPLDICSSICKYPDYLKMVSEPYGDMLFFYLRREQMFVRHLFNRAGTVGETVPADLYIKGTTGTLPSTSYFPTPSGSMVTSDAQIFNKPYWLQRAQGHNNGICWSNQLFVTVVDTTRSTNMSVCSAVSSSDSTYKNDNFKEYLRHGEEYDLQFIFQLCKITLTADVMTYIHSMNPSILEDWNGGSGGDPLKNYTFWEVDLKEKFSADLDQFPLGRKFLLQAGL,soluble
17,MGSDKIHHHHHHMEETAETPAAVIPPPPPEDEPAELPATLGFVSHQPVMDRQQRVVAYDFFVRQGKRNIEAGKQQEFDRLLLATLHNMDIFRLLAYRRAFVHIAMTSLDDPQLRGMPAGSVIFVLEPLPGMVVAEHMLRQLDELQKLGLRFALEPAAYDQNMLSPALQADLFSRVDFMVLDFAGPSTRVLAPILDQLPKRYPGARWLARNVGTAEDMDVCLRAPGHNRFALFHGPFVTTAHALEGGKVDTNQTRVLQIMRLLRTNADPKEVEAQFKLDSVLLFKLLRFINSPIHGLSRKVQTIEETLLLLGRETLFKWLSMLLFTSRKEDGTALSLLEKSLIRARFMEKLGGYRGNKLEAEHLFLTGMFSLLDVLLNQPFPDVLDPLELPLTVREAVVERKGIFAPHLALAMACEQGDNVQIEALAKVLDFDLDLANQYYLDSVVWAQVVLRDSEVHNNVEAV,not soluble
18,MSLKPTKIFAFGGLEEVGKNMYGIEYDDELIIVDCGIKFSSVELLGIDGIVPNFAYAKANQHKIKALVITHGHEDHIGGIPYLLREVSVPVIYAPLMATKLIEKKLHEHHNLNQYKIVSYNDKSEFSTKHFKIDFYRVCHSIPDAFGVCVQTPNGNIVESGDYRFDFNAGNEELDIHKVVEISRRGIDLFMTETTNAEIPGFSSSEKEIYDNIKNIIKNANGRVILSTFASNVTRISEVIEIAIQHGRKICLLGKSMDNNVSISRDVGYINLKDDDIVESRYVEQHPDNEIMIFCTGSQGEELAALNMLASGRHPWIQLKKTDSIIMSSNPIPGNYAAVERLLNELSKEEGISIYENSPTLKLHASGHATMQEIQLMLSLLRPKYLFPIHGEYKMFTSLKRIAKKCGFDPENVALHKNGQIVYLIDREGHHHHHH,soluble
19,MKYQIVTSGFGGQGAVFIVKLLSLCAGIKGEKYLGTENHGMSQRGGSVSCFIKVGDFYTPVIEENQADMIIALEQNEGLRTLQYLKKGGKLIVNADDSLPRLEGCEAIKVDAFSLAKEGRFPAQALNAFMVGVASMQSGFPFDEETLKKGLEMINPKVAESNIQVFELGRACAPRS,not soluble
20,MGQNDLVKTLRMNYLFDFYQSLLTNKQRNYLELFYLEDYSLSEIADTFNVSRQAVYDNIRRTGDLVEDYEKKLELYQKFEQRREIYDEMKQHLSNPEQIQRYIQQLEDLE,not soluble
21,LRYNLWFGVYDGKEIKLSENFEESFLKAENPSPLPFNVSEVGAKALGKDYYRILRKTALAVSEKMVEKELRREDRYVVALVKALEEIDESINMLNEKLEDIRAVKESEITEKFEKKIRELRELRRDVEREIEEVMEKIAPNMTELVGAKVAAKLLERAGSMERLVRLPASKIQVIGAEKSLYKAFARMKKGKKAKIPKHGIIFLHPFIRTLPKAKRGKMARFLAAKLAIAAKIDYFRGEIDESLYESIRRRYEELRRK,soluble
